From the Human Domainome abundance scans (Beltran et al. 2025) come the findings set out here.

First the molecules themselves.
B1: POU domain, class 4, transcription factor 2, residues 256 to 327; numbered along this chain, Q12837 (parent)
chain: RDLEAFAERFKQRRIKLGVTQADVGSALANLKIPGVGSLSQSTICRFESLTLSHNNMIALKPILQAWLEEAE

± gives the uncertainty stated by the source.

This data set covers variants of B1. The experiment in a line: abundance fitness (aPCA) (normalised: wild type 0, dead -1); higher = more abundant; growth selection in yeast, the domain comes from the species named. Particulars: Homo sapiens.
In the case of T51D, the abundance fitness was -0.295 ± 0.39. To T51Y belongs -0.567 ± 0.21; to T51H, -0.232 ± 0.36. The value for G18F was -0.892 ± 0.41; that for G18R was -0.372 ± 0.042. Consider P34G, for which the abundance fitness is -0.1 ± 0.1. Consider P34S, for which the abundance fitness was -0.106 ± 0.054. To P34C belongs -0.679 ± 0.19; to A29G, -0.009 ± 0.082; to A29E, -0.239 ± 0.079. The value for A29F was -0.544 ± 0.14; that for L17G was -0.884 ± 0.15; that for L17D was -0.681 ± 0.35. On to V36L, for which the abundance fitness came out at 0.061 ± 0.046. The value for I15N was -0.521 ± 0.14.

Consider I15S, for which the abundance fitness was -0.262 ± 0.056. The value for S38T was -0.083 ± 0.082; that for S38N was 0.133 ± 0.11. The value for D2S was -0.124 ± 0.053; that for D2M was -0.318 ± 0.2; that for R1P was -0.199 ± 0.33. The value for R1A was 0.078 ± 0.093.

R1W: the abundance fitness was -0.143 ± 0.12. The value for Q65P was -0.528 ± 0.081. The value for Q65V was -0.324 ± 0.062.

For Q65S, the abundance fitness was -0.028 ± 0.058. To V19F belongs -0.103 ± 0.13. On to V19M, for which the abundance fitness came out at 0.055 ± 0.081.

On to R9P, for which the abundance fitness was -0.782 ± 0.086. R9Q: the abundance fitness turned out to be 0.195 ± 0.088. Regarding R9I, the abundance fitness is -0.347 ± 0.22. The value for R9S was 0.018 ± 0.047. For the variant R9G, the abundance fitness was -0.061 ± 0.046.

With R9C, the abundance fitness stood at 0.014 ± 0.15. Take S42H: the abundance fitness was found to be 0.085 ± 0.076. On to S42P, for which the abundance fitness is -0.381 ± 0.059.

Turning to K32D, the abundance fitness was determined as 0.054 ± 0.23.

Consider K32E, for which the abundance fitness was 0.052 ± 0.11.

On to H54Q, for which the abundance fitness was determined as 0.034 ± 0.06. For H54M, the abundance fitness was 0.005 ± 0.18. To H54A belongs -0.005 ± 0.065.

Turning to H54W, the abundance fitness was -0.119 ± 0.088. With H54T, the abundance fitness was 0.06 ± 0.087. Consider H54I, for which the abundance fitness is -0.047 ± 0.18. As for K61T, the abundance fitness is -0.02 ± 0.1. Turning to I63K, the abundance fitness is -0.495 ± 0.18. To I63A belongs -0.03 ± 0.077. As to I63E, the abundance fitness was -0.018 ± 0.15. To I63G belongs -0.414 ± 0.07; to I63C, -0.231 ± 0.25.

For the variant P62E, the abundance fitness was -0.457 ± 0.093. The value for P62S was -0.465 ± 0.065. P62K: the abundance fitness was -0.698 ± 0.13. As to P62R, the abundance fitness was -0.771 ± 0.12. For P62Y, the abundance fitness was -0.827 ± 0.2. For the variant P62L, the abundance fitness is -0.982 ± 0.15.

Take E48S: the abundance fitness is -0.644 ± 0.11. To K11E belongs -0.914 ± 0.34; to K11P, -0.994 ± 0.12.

Consider K11A, for which the abundance fitness was -0.337 ± 0.064. For the variant K11T, the abundance fitness was -0.194 ± 0.1. Take A71H: the abundance fitness was -0.223 ± 0.25. To L39M belongs -0.01 ± 0.087; to E8Y, 0.036 ± 0.073; to E8L, -0.072 ± 0.064. The value for E8H was -0.016 ± 0.085; that for Q12S was -0.186 ± 0.065; that for S26D was -0.076 ± 0.12. S26K: the abundance fitness was -0.176 ± 0.35. To L50S belongs 0.012 ± 0.066; to L50M, -0.003 ± 0.15.

For the variant L50D, the abundance fitness was -0.196 ± 0.13. On to N30G, for which the abundance fitness is -0.103 ± 0.097.

Consider A7D, for which the abundance fitness was -0.769 ± 0.35. To A7H belongs -0.772 ± 0.23; to A7Y, -0.537 ± 0.13. As for R46V, the abundance fitness is -0.899 ± 0.22. The value for R46W was -0.567 ± 0.16; that for R46M was -0.12 ± 0.11; that for R46L was -0.22 ± 0.062. The value for S49E was 0.134 ± 0.14; that for E69H was -0.481 ± 0.17. In the case of E69D, the abundance fitness was -0.349 ± 0.19. Turning to E69N, the abundance fitness was -0.219 ± 0.14.

Turning to A66E, the abundance fitness was -0.007 ± 0.067.

For K16E, the abundance fitness stood at 0.036 ± 0.12. As for K16A, the abundance fitness was determined as 0.001 ± 0.055. In the case of L31E, the abundance fitness was -0.112 ± 0.1. The value for L31M was 0.032 ± 0.11; that for G35C was -0.512 ± 0.19; that for V24Y was -0.975 ± 0.4. To V24R belongs -0.76 ± 0.09; to V24S, -0.8 ± 0.12. The value for V24Q was -1.02 ± 0.28; that for V24G was -1.03 ± 0.19.

On to I33N, for which the abundance fitness was -0.434 ± 0.16. On to E4W, for which the abundance fitness is -0.234 ± 0.075. The value for E4H was -0.119 ± 0.12; that for E4V was -0.085 ± 0.058; that for E4R was -0.137 ± 0.054. To E4I belongs -0.002 ± 0.1. To L28W belongs -0.597 ± 0.1; to L28T, -0.528 ± 0.084. On to L28M, for which the abundance fitness turned out to be 0.008 ± 0.085.

For E70L, the abundance fitness was -0.454 ± 0.083. To L3I belongs 0.072 ± 0.1.

As for L3N, the abundance fitness was -0.382 ± 0.19.

L3E: the abundance fitness was -0.573 ± 0.091. For L3P, the abundance fitness was -0.558 ± 0.076. The value for N56Q was 0.275 ± 0.39; that for N56F was -0.149 ± 0.24. Take F47W: the abundance fitness was -0.836 ± 0.12. For the variant L60C, the abundance fitness is -0.12 ± 0.07. As for F10I, the abundance fitness was -0.632 ± 0.3. The value for F10S was -1 ± 0.16; that for T20N was -0.559 ± 0.4; that for T20R was -0.464 ± 0.054.

Regarding T20Q, the abundance fitness is -0.555 ± 0.13. To M57R belongs -0.904 ± 0.088. To M57G belongs -0.41 ± 0.075. With M57F, the abundance fitness is -0.428 ± 0.26. On to M57Q, for which the abundance fitness is -0.859 ± 0.21. The value for T43E was -0.574 ± 0.3. Regarding T43W, the abundance fitness is -0.282 ± 0.092. To T43I belongs 0.207 ± 0.23. To L52N belongs -0.997 ± 0.18; to G25W, -0.116 ± 0.064; to G25A, -0.006 ± 0.094. Consider C45H, for which the abundance fitness came to 0.039 ± 0.11. As to C45Y, the abundance fitness was 0.26 ± 0.39. To C45A belongs 0.036 ± 0.071. With C45D, the abundance fitness is -0.135 ± 0.11.

On to C45G, for which the abundance fitness is 0.02 ± 0.069. The value for C45M was -0.251 ± 0.33. The value for N55D was -0.009 ± 0.12; that for N55H was -0.326 ± 0.14. Turning to N55G, the abundance fitness is -0.009 ± 0.098. To G37N belongs -0.309 ± 0.28.

As to G37T, the abundance fitness was -0.162 ± 0.08. With D23V, the abundance fitness was -0.403 ± 0.087. For L64V, the abundance fitness is -0.295 ± 0.1. With S53L, the abundance fitness was -0.729 ± 0.1. To S53F belongs -0.882 ± 0.2; to S53G, -0.102 ± 0.059. Regarding I44D, the abundance fitness was -0.771 ± 0.4. For the variant S40E, the abundance fitness is -0.15 ± 0.11. The value for A27S was -0.114 ± 0.048; that for A27Q was 0.068 ± 0.069. A27P: the abundance fitness is -0.941 ± 0.12. The value for A27H was -0.172 ± 0.12; that for A22G was -0.038 ± 0.046; that for A22N was -0.219 ± 0.11. To A22D belongs -0.262 ± 0.15; to A22E, -0.066 ± 0.1; to A22T, -0.347 ± 0.096. The value for A22L was -0.222 ± 0.054; that for R14M was -0.725 ± 0.14. Regarding R14Y, the abundance fitness was -0.594 ± 0.32.

Consider R14G, for which the abundance fitness was -1.07 ± 0.21.

On to A59M, for which the abundance fitness was -0.003 ± 0.075. For the variant A59S, the abundance fitness was -0.095 ± 0.051. Take A59G: the abundance fitness is -0.169 ± 0.097. The value for R13D was -0.462 ± 0.34. The value for R13T was -0.165 ± 0.086; that for R13H was -0.115 ± 0.082. R13E: the abundance fitness was -0.03 ± 0.09. To R13C belongs -0.476 ± 0.18.
